Measured values: US20170260508A1 (FRED HUTCHINSON CANCER RESEARCH CENTER, published 2017)

T1: Angptl2-FLAG, full-length human Angptl2 secreted from transfected 293T cells (human, UniProt Q9UKU9 23-493)
T1 construct: Runs partly as a high molecular weight (>250 kD) multimer; also called full-length Angptl2; FLAG-tagged Angptl2; not shown: FLAG tag at the C terminus
T1 sequence: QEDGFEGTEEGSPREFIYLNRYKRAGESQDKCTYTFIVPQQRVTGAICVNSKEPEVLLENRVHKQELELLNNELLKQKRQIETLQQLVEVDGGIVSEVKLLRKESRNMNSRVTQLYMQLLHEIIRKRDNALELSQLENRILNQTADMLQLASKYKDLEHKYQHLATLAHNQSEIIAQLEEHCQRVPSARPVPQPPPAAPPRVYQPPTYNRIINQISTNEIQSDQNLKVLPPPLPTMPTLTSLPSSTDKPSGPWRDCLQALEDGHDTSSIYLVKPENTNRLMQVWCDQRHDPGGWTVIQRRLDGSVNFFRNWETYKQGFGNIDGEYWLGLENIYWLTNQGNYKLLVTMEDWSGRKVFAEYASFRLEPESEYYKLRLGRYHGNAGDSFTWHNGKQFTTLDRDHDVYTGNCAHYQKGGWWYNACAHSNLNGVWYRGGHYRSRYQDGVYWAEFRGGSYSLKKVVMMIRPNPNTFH


These binders were tested against T1, Angptl2-FLAG, full-length human Angptl2 … (assay: flow cytometry, ligand on mutant LILRB2 (FIG. 6G)).
Protocol: (§1) Flow cytometry. […] Cells were harvested at 48 h for analysis. […] Anti-LILRB2-PE was used as indicated. Cells were analyzed using either a FACSCalibur or FACSAria instrument (Becton Dickinson).

| Binder | binding result |
| --- | --- |
| LILRB2 H92S on 293T cells (receptor) QTGTIPKPTLWAEPDSVITQGSPVTLSCQGSLEAQEYRLYREKKSASWITRIRPELVKNGQFHIPSITWESTGRYGCQYYSRARWSELSDPLVLVMTGAYPKPTLSAQPSPVVTSGGRVTLQCESQVAFGGFILCKEGEEEHPQCLNSQPHARGSSRAIFSVGPVSPNRRWSHRCYGYDLNSPYVWSSPSDLLELLVPGVSKKPSLSVQPGPVVAPGESLTLQCVSDVGYDRFVLYKEGERDLRQLPGRQPQAGLSQANFTLGPVSRSYGGQYRCYGAHNLSSECSAPSDPLDILITGQIRGTPFISVQPGPTVASGENVTLLCQSWRQFHTFLLTKAGAADAPLRLRSIHEYPKYQAEFPMSPVTSAHAGTYRCYGSLNSDPYLLSHPSEPLELVVSGPSMGSSPPPTGPISTPGPEDQPLTPTGSDPQSGLGRHLGVVIGILVAVVLLLLLLLLLFLILRHRRQGKHWTSTQRKADFQHPAGAVGPEPTDRGLQWRSSPAADAQEENLYAAVKDTQPEDGVEMDTRAAASEAPQDVTYAQLHSLTLRRKATEPPPSQEREPPAEPSIYATLAIH | binds |
| full-length LILRB2 R95E on 293T cells (receptor, also called single mutation in R95) QTGTIPKPTLWAEPDSVITQGSPVTLSCQGSLEAQEYRLYREKKSASWITRIRPELVKNGQFHIPSITWEHTGEYGCQYYSRARWSELSDPLVLVMTGAYPKPTLSAQPSPVVTSGGRVTLQCESQVAFGGFILCKEGEEEHPQCLNSQPHARGSSRAIFSVGPVSPNRRWSHRCYGYDLNSPYVWSSPSDLLELLVPGVSKKPSLSVQPGPVVAPGESLTLQCVSDVGYDRFVLYKEGERDLRQLPGRQPQAGLSQANFTLGPVSRSYGGQYRCYGAHNLSSECSAPSDPLDILITGQIRGTPFISVQPGPTVASGENVTLLCQSWRQFHTFLLTKAGAADAPLRLRSIHEYPKYQAEFPMSPVTSAHAGTYRCYGSLNSDPYLLSHPSEPLELVVSGPSMGSSPPPTGPISTPGPEDQPLTPTGSDPQSGLGRHLGVVIGILVAVVLLLLLLLLLFLILRHRRQGKHWTSTQRKADFQHPAGAVGPEPTDRGLQWRSSPAADAQEENLYAAVKDTQPEDGVEMDTRAAASEAPQDVTYAQLHSLTLRRKATEPPPSQEREPPAEPSIYATLAIH | binds |
| LILRB2 T393E on 293T cells (receptor) QTGTIPKPTLWAEPDSVITQGSPVTLSCQGSLEAQEYRLYREKKSASWITRIRPELVKNGQFHIPSITWEHTGRYGCQYYSRARWSELSDPLVLVMTGAYPKPTLSAQPSPVVTSGGRVTLQCESQVAFGGFILCKEGEEEHPQCLNSQPHARGSSRAIFSVGPVSPNRRWSHRCYGYDLNSPYVWSSPSDLLELLVPGVSKKPSLSVQPGPVVAPGESLTLQCVSDVGYDRFVLYKEGERDLRQLPGRQPQAGLSQANFTLGPVSRSYGGQYRCYGAHNLSSECSAPSDPLDILITGQIRGTPFISVQPGPTVASGENVTLLCQSWRQFHTFLLTKAGAADAPLRLRSIHEYPKYQAEFPMSPVTSAHAGEYRCYGSLNSDPYLLSHPSEPLELVVSGPSMGSSPPPTGPISTPGPEDQPLTPTGSDPQSGLGRHLGVVIGILVAVVLLLLLLLLLFLILRHRRQGKHWTSTQRKADFQHPAGAVGPEPTDRGLQWRSSPAADAQEENLYAAVKDTQPEDGVEMDTRAAASEAPQDVTYAQLHSLTLRRKATEPPPSQEREPPAEPSIYATLAIH | binds |
| LILRB2 MHC-S1 mutant (R59A/Y61A) on 293T cells (receptor) QTGTIPKPTLWAEPDSVITQGSPVTLSCQGSLEAQEYALAREKKSASWITRIRPELVKNGQFHIPSITWEHTGRYGCQYYSRARWSELSDPLVLVMTGAYPKPTLSAQPSPVVTSGGRVTLQCESQVAFGGFILCKEGEEEHPQCLNSQPHARGSSRAIFSVGPVSPNRRWSHRCYGYDLNSPYVWSSPSDLLELLVPGVSKKPSLSVQPGPVVAPGESLTLQCVSDVGYDRFVLYKEGERDLRQLPGRQPQAGLSQANFTLGPVSRSYGGQYRCYGAHNLSSECSAPSDPLDILITGQIRGTPFISVQPGPTVASGENVTLLCQSWRQFHTFLLTKAGAADAPLRLRSIHEYPKYQAEFPMSPVTSAHAGTYRCYGSLNSDPYLLSHPSEPLELVVSGPSMGSSPPPTGPISTPGPEDQPLTPTGSDPQSGLGRHLGVVIGILVAVVLLLLLLLLLFLILRHRRQGKHWTSTQRKADFQHPAGAVGPEPTDRGLQWRSSPAADAQEENLYAAVKDTQPEDGVEMDTRAAASEAPQDVTYAQLHSLTLRRKATEPPPSQEREPPAEPSIYATLAIH | binds |
| LILRB2 G392D on 293T cells (receptor) QTGTIPKPTLWAEPDSVITQGSPVTLSCQGSLEAQEYRLYREKKSASWITRIRPELVKNGQFHIPSITWEHTGRYGCQYYSRARWSELSDPLVLVMTGAYPKPTLSAQPSPVVTSGGRVTLQCESQVAFGGFILCKEGEEEHPQCLNSQPHARGSSRAIFSVGPVSPNRRWSHRCYGYDLNSPYVWSSPSDLLELLVPGVSKKPSLSVQPGPVVAPGESLTLQCVSDVGYDRFVLYKEGERDLRQLPGRQPQAGLSQANFTLGPVSRSYGGQYRCYGAHNLSSECSAPSDPLDILITGQIRGTPFISVQPGPTVASGENVTLLCQSWRQFHTFLLTKAGAADAPLRLRSIHEYPKYQAEFPMSPVTSAHADTYRCYGSLNSDPYLLSHPSEPLELVVSGPSMGSSPPPTGPISTPGPEDQPLTPTGSDPQSGLGRHLGVVIGILVAVVLLLLLLLLLFLILRHRRQGKHWTSTQRKADFQHPAGAVGPEPTDRGLQWRSSPAADAQEENLYAAVKDTQPEDGVEMDTRAAASEAPQDVTYAQLHSLTLRRKATEPPPSQEREPPAEPSIYATLAIH | binds |

Further lines, results first:

| binding result | Binder |
| --- | --- |
| binds | full-length LILRB2 G94D on 293T cells (receptor, also called single mutation in G94) QTGTIPKPTLWAEPDSVITQGSPVTLSCQGSLEAQEYRLYREKKSASWITRIRPELVKNGQFHIPSITWEHTDRYGCQYYSRARWSELSDPLVLVMTGAYPKPTLSAQPSPVVTSGGRVTLQCESQVAFGGFILCKEGEEEHPQCLNSQPHARGSSRAIFSVGPVSPNRRWSHRCYGYDLNSPYVWSSPSDLLELLVPGVSKKPSLSVQPGPVVAPGESLTLQCVSDVGYDRFVLYKEGERDLRQLPGRQPQAGLSQANFTLGPVSRSYGGQYRCYGAHNLSSECSAPSDPLDILITGQIRGTPFISVQPGPTVASGENVTLLCQSWRQFHTFLLTKAGAADAPLRLRSIHEYPKYQAEFPMSPVTSAHAGTYRCYGSLNSDPYLLSHPSEPLELVVSGPSMGSSPPPTGPISTPGPEDQPLTPTGSDPQSGLGRHLGVVIGILVAVVLLLLLLLLLFLILRHRRQGKHWTSTQRKADFQHPAGAVGPEPTDRGLQWRSSPAADAQEENLYAAVKDTQPEDGVEMDTRAAASEAPQDVTYAQLHSLTLRRKATEPPPSQEREPPAEPSIYATLAIH |
| binds | LILRB2 T93A on 293T cells (receptor) QTGTIPKPTLWAEPDSVITQGSPVTLSCQGSLEAQEYRLYREKKSASWITRIRPELVKNGQFHIPSITWEHAGRYGCQYYSRARWSELSDPLVLVMTGAYPKPTLSAQPSPVVTSGGRVTLQCESQVAFGGFILCKEGEEEHPQCLNSQPHARGSSRAIFSVGPVSPNRRWSHRCYGYDLNSPYVWSSPSDLLELLVPGVSKKPSLSVQPGPVVAPGESLTLQCVSDVGYDRFVLYKEGERDLRQLPGRQPQAGLSQANFTLGPVSRSYGGQYRCYGAHNLSSECSAPSDPLDILITGQIRGTPFISVQPGPTVASGENVTLLCQSWRQFHTFLLTKAGAADAPLRLRSIHEYPKYQAEFPMSPVTSAHAGTYRCYGSLNSDPYLLSHPSEPLELVVSGPSMGSSPPPTGPISTPGPEDQPLTPTGSDPQSGLGRHLGVVIGILVAVVLLLLLLLLLFLILRHRRQGKHWTSTQRKADFQHPAGAVGPEPTDRGLQWRSSPAADAQEENLYAAVKDTQPEDGVEMDTRAAASEAPQDVTYAQLHSLTLRRKATEPPPSQEREPPAEPSIYATLAIH |
| binds | LILRB2 Q99R on 293T cells (receptor) QTGTIPKPTLWAEPDSVITQGSPVTLSCQGSLEAQEYRLYREKKSASWITRIRPELVKNGQFHIPSITWEHTGRYGCRYYSRARWSELSDPLVLVMTGAYPKPTLSAQPSPVVTSGGRVTLQCESQVAFGGFILCKEGEEEHPQCLNSQPHARGSSRAIFSVGPVSPNRRWSHRCYGYDLNSPYVWSSPSDLLELLVPGVSKKPSLSVQPGPVVAPGESLTLQCVSDVGYDRFVLYKEGERDLRQLPGRQPQAGLSQANFTLGPVSRSYGGQYRCYGAHNLSSECSAPSDPLDILITGQIRGTPFISVQPGPTVASGENVTLLCQSWRQFHTFLLTKAGAADAPLRLRSIHEYPKYQAEFPMSPVTSAHAGTYRCYGSLNSDPYLLSHPSEPLELVVSGPSMGSSPPPTGPISTPGPEDQPLTPTGSDPQSGLGRHLGVVIGILVAVVLLLLLLLLLFLILRHRRQGKHWTSTQRKADFQHPAGAVGPEPTDRGLQWRSSPAADAQEENLYAAVKDTQPEDGVEMDTRAAASEAPQDVTYAQLHSLTLRRKATEPPPSQEREPPAEPSIYATLAIH |

These binders were tested against T1, Angptl2-FLAG, full-length human Angptl2 … (assay: flow cytometry, Angptl2 on 293T cells expressing the domain).
Protocol: as §1
LILRB2 contains four extracellular immunoglobulin (Ig)-like domains. Takai et al., J Biomed Biotechnol. 2011; 2011:275302. […] To test this hypothesis, a number of domain and site-specific mutations of LILRB2 were generated for the flow cytometry-based cell surface ligand binding assay and chimeric reporter assay.

| binding result | Binder |
| --- | --- |
| no binding | LILRB2 Ig3 domain expressed on 293T cells (receptor, The range is stated for the chimeric reporter constructs; also called 3rd Ig domain) VSKKPSLSVQPGPVVAPGESLTLQCVSDVGYDRFVLYKEGERDLRQLPGRQPQAGLSQANFTLGPVSRSYGGQYRCYGAHNLSSECSAPSDPLDILITGQ |
| no binding | LILRB2 Ig1 domain expressed on 293T cells (receptor, The range is stated for the chimeric reporter constructs; also called 1st Ig domain) GTIPKPTLWAEPDSVITQGSPVTLSCQGSLEAQEYRLYREKKSASWITRIRPELVKNGQFHIPSITWEHTGRYGCQYYSRARWSELSDPLVLVMTG |
| no binding | LILRB2 Ig2 domain expressed on 293T cells (receptor, The range is stated for the chimeric reporter constructs; also called 2nd Ig domain) AYPKPTLSAQPSPVVTSGGRVTLQCESQVAFGGFILCKEGEEEHPQCLNSQPHARGSSRAIFSVGPVSPNRRWSHRCYGYDLNSPYVWSSPSDLLELLVP |
